Source: patent US20230077100A1 (published 2023)

T1: HPV16 E6 peptide on HLA-A*02:01 (human)
T1 peptide: TIHDIILECV

B1: E202 TCR (TCR, V domains shown)
Valpha: AQTVTQSQPEMSVQEAETVTLSCTYDTSESDYYLFWYKQPPSRQMILVIRQEAYKQQNATENRFSVNFQKAAKSFSLKISDSQLGDAAMYFCAYRDSRGSTLGRLYFGRGTQLTVWP
Vbeta: DVKVTQSSRYLVKRTGEKVFLECVQDMDHENMFWYRQDPGLGLRLIYFSYDVKMKEKGDIPEGYSVSREKKERFSLILESASTNQTSMYLCASSLWGRKNTEAFFGQGTRLTVV
B2: E205 TCR (TCR, V domains shown)
Valpha: TQLLEQSPQFLSIQEGENLTVYCNSSSVFSSLQWYRQEPGEGPVLLVTVVTGGEVKKLKRLTFQFGDARKDSSLHITAAQPGDTGLYLCAGVSARLMFGDGTQLVVKP
Vbeta: SAVISQKPSRDICQRGTSLTIQCQVDSQVTMMFWYRQQPGQSLTLIATANQGSEATYESGFVIDKFPISRPNLTFSTLTVSNMSPEDSSIYLCSAVGGPKVPGAEAFFGQGTRLTVV
B3: E203 TCR (TCR, V domains shown)
Valpha: LAKTTQPISMDSYEGQEVNITCSHNNIATNDYITWYQQFPSQGPRFIIQGYKTKVTNEVASLFIPADRKSSTLSLPRVSLSDTAVYYCLALSMDSSYKLIFGSGTRLLVRP
Vbeta: DAGVIQSPRHEVTEMGQEVTLRCKPISGHDYLFWYRQTMMRGLELLIYFNNNVPIDDSGMPEDRFSAKMPNASFSTLKIQPSEPRDSAVYFCASSLAQRSAPEAFFGQGTRLTVV

Assays:
[1] = target: T1, HPV16 E6 peptide on HLA-A*02:01; experiment: peptide titration on T2 cells, E:T 1:1, overnight, intracellular IFN-γ; full-length, on cells
[2] = target: T1, HPV16 E6 peptide on HLA-A*02:01; experiment: peptide titration on APCs, E:T 1:1, overnight, intracellular IFN-γ in CD4+ TCR-T cells; full-length, on cells
[3] = target: T1, HPV16 E6 peptide on HLA-A*02:01; experiment: peptide titration on APCs, E:T 1:1, overnight, intracellular IFN-γ in CD8+ TCR-T cells; full-length, on cells

| Binder | EC50 of peptide [1] | EC50 of peptide [2] | EC50 of peptide [3] |
| --- | --- | --- | --- |
| B1 | 0.045 mg/L | – | – |
| B2 | – | 0.0104 mg/L | 0.000917 mg/L |
| B3 | – | 0.0176 mg/L | 0.00104 mg/L |
